# Experimental data reported in article PMC8488560.
# Target: clathrin (triskelia purified from pig brain clathrin-coated vesicles) (pig)
# Experiment: cryo-EM structure; clathrin cages assembled with a 60-fold molar excess of β2HA; single particle analysis of minicoat cages, signal subtraction, masked 3D classification and localized reconstruction; compared with clathrin-only minicoat cages
substance,measurement,value
"β2-adaptin 616-951, hinge and appendage of the human β2 subunit of the AP2 complex (β2HA) (from UniProt P63010-2 616-951) (domain or fragment)",stoichiometry N (β2HA per terminal domain),0.5
